One data set addresses Mif2 DHBD (Saccharomyces cerevisiae (budding yeast), UniProt P35201 256-365). Description: analytical ultracentrifugation.
The data set “AUC” concerns the molecule itself. Kind of data set: AUC.
The next data set has as its target Mif2c (Mif2 core) dimer (Saccharomyces cerevisiae (budding yeast), UniProt P35201 256-530). Description: analytical ultracentrifugation.

The values that follow come from paper PMC5710141 (Genes & Development, 2017).

B1: 20-bp AT-rich dsDNA (dsDNA)
DNA 1: AAAGTAAAAAATAAAAAGTA
DNA 2: TACTTTTTATTTTTTACTTT
For the molecule B1, the binding result with Mif2 DHBD is given as “binds”.

B2: Mif2 core (Mif2c) dimer, Mif2 residues 256-530 (domain or fragment, budding yeast, UniProt P35201 256-530, looked up)
chain: NTNDNEDDYIRRQASDVVRTDSIIDRNGLRKSTRVKVAPLQYWRNEKIVYKRKSNKPVLDIDKIVTYDESEDEEEILAAQRRKKQKKKPTPTRPYNYVPTGRPRGRPKKDPNAKENLIPEDPNEDIIERIESGGIENGEWLKHGILEANVKISDTKEETKDEIIAFAPNLSQTEQVKDTKDENFALEIMFDKHKEYFASGILKLPAISGQKKLSNSFRTYITFHVIQGIVEVTVCKNKFLSVKGSTFQIPAFNEYAIANRGNDEAKMFFVQVTVS
Consider B2, for which the “stoichiometry N” value in the data set “AUC” is 2.

B3: 40-bp AT-rich dsDNA (dsDNA)
DNA 1: AAAGTAAAAAATAAAAAGTAGTTTATTTTTAAAAAATAAA
DNA 2: TTTATTTTTTAAAAATAAACTACTTTTTATTTTTTACTTT
As for B3, the binding result in the data set with Mif2c (Mif2 core) dimer was “binds”.

A word on the stoichiometry N: it is a count of units in the complex or per binding partner.
